Measured values reported in US20050113284A1 (published 2005).

B1: prey clone No. 3-309: C-terminal 91 amino acids of the human c-Met β chain fused to GAL4-AD (other, not shown: large carriers)
chain: RRLLQPEYCPDPLYEVMLKCWHPKAEMRPSFSELVSRISAIFSTFIGEHYVHVNATYVNVKCVAPYPSLLSSEDNADDEVDTRPASFWETS
notes: also called human HGF receptor c-Met prey vector

Assays:
[1] = biological target: T1, human MERMUC bait-2 protein (C-terminal 123 amino acids of human MERMUC fused to GAL4-DB) (yeast; human); assay: yeast two-hybrid (growth on SD/-Leu,-Trp,-His and SD/-Leu,-Trp,-Ade)
T1 construct: also called MERMUC bait protein; fusion protein A
Description: The binding activity between the c-Met prey proteins derived from the 7 DNA fragments and the MERMUC bait protein was analyzed by the yeast two-hybrid system described in Example 1. Specifically, the binding activity was evaluated based on the growth of yeast transformed with the vector on 2 kinds of yeast minimum media, i.e., (1) SD/-Leu, -Trp, -His media and (2) SD/-Leu, -Trp, -Ade media.

[2] = biological target: T1, human MERMUC bait-2 protein (C-terminal …); assay: yeast two-hybrid screen of a human kidney cDNA library
Description: Specifically, yeast two hybrid system (Proc. Natl. Acad. Sci. USA., 1991, Vol.88, p.9578-9582) was performed to screen a human kidney cDNA library using cDNA corresponding to the C-terminal region of the human MERMUC as the bait (that is, fishing bait).
On the other hand, each cDNA of the human kidney derived cDNA library (CLONTECH) that is used for the screening with the bait vector is inserted in pADK vector (tryptophan biosynthesis gene as a marker). Therefore, proteins produced through the expression of each of these cDNAs in yeast are produced as a fusion protein ([fusion protein B]) with the GAL4 transcriptional activation region (GAL4-AD).

[3] = biological target: B1; assay: yeast two-hybrid
Description: (§1) Yeast AH109 strain was cotransfected with each of the bait vectors and the prey vector carrying human HGF receptor c-Met (DNA corresponding to the C-terminal 91 amino acids of the human c-Met; clone No. 3-309) identified in Example 1.
(§2) The binding ability of MERMUC bait protein derived from each of the bait vectors to the HGF receptor c-Met β chain was analyzed by the yeast two-hybrid system described above.

[4] = biological target: MERMUC bait protein C260 (amino acids 244-503 of SEQ ID NO: 10) fused to GAL4-DB (yeast; human, UniProt P04386 1-147); assay: yeast two-hybrid
Description: as §1, §2

[5] = biological target: MERMUC bait protein C53 (amino acids 451-503 of SEQ ID NO: 10) fused to GAL4-DB (yeast; human, UniProt P04386 1-147); assay: yeast two-hybrid
Description: as §1, §2

Binder | binding result [1] | binding result [2] | other results
c-Met prey protein A (amino acids 1003-1083 of SEQ ID NO: 4) fused to GAL4-AD (other, not shown: large carriers, also called prey DNA A) DPLYEVMLKCWHPKAEMRPSFSELVSRISAIFSTFIGEHYVHVNATYVNVKCVAPYPSLLSSEDNADDEVDTRPASFWETS | binds |  | 
prey clone No. 2-22: C-terminal 93 amino acids of human MERMUC fused to GAL4-AD (other, not shown: large carriers) SSRGTNSTLAKITTSAKTTMKPPTATPTTARTRPTTDVSAGENGGFLLLRLSVASPEDLTDPRVAERLMQQLHRELHAHAPHFQVSLLRVRRG |  | binds | 
c-Met prey protein B (amino acids 1013-1083 of SEQ ID NO: 4) fused to GAL4-AD (other, not shown: large carriers, also called prey DNA B) WHPKAEMRPSFSELVSRISAIFSTFIGEHYVHVNATYVNVKCVAPYPSLLSSEDNADDEVDTRPASFWETS | binds |  | 
MERMUC bait protein C260ΔC53 (amino acids 244-450 of SEQ ID NO: 10) fused to GAL4-DB (other, not shown: small tags and cut ends, also called C260A53; C260AC53) VKASSTSDPPALPDSTEAKPHITEVTASAETLSTAGTTESAAPHATVGTPLPTNSATEREVTAPGATTLSGALVTVSRNPLEETSALSVETPSYVKVSGAAPVSIEAGSAVGKTTSFAGSSASSYSPSEAALKNFTPSETPTMDIATKGPFPTSRDPLPSVPPTTTNSSRGTNSTLAKITTSAKTTMKPPTATPTTARTRPTTDVSA |  |  | binding result [3]: no binding
B1 |  | binds | binding result [4]: binds; binding result [5]: binds
prey clone No. 2-211: C-terminal 56 amino acids of human MERMUC fused to GAL4-AD (other, not shown: large carriers) VSAGENGGFLLLRLSVASPEDLTDPRVAERLMQQLHRELHAHAPHFQVSLLRVRRG |  | binds | 
c-Met prey protein C (amino acids 1023-1083 of SEQ ID NO: 4) fused to GAL4-AD (other, not shown: large carriers, also called prey DNA C) FSELVSRISAIFSTFIGEHYVHVNATYVNVKCVAPYPSLLSSEDNADDEVDTRPASFWETS | no binding |  | 
c-Met prey protein G (amino acids 993-1043 of SEQ ID NO: 4) fused to GAL4-AD (other, not shown: large carriers, also called prey DNA G) RRLLQPEYCPDPLYEVMLKCWHPKAEMRPSFSELVSRISAIFSTFIGEHYV | no binding |  | 
prey clone No. 3-312: C-terminal 89 amino acids of the human c-Met β chain fused to GAL4-AD (other, not shown: large carriers) LLQPEYCPDPLYEVMLKCWHPKAEMRPSFSELVSRISAIFSTFIGEHYVHVNATYVNVKCVAPYPSLLSSEDNADDEVDTRPASFWETS |  | binds | 
